Our source for the activity (% modified chromatids) values is US20110269234.

The subject of the data set is KDR-targeted ZFN pair (artificial). The experiment in a line: cell_activity. The note with it: HeLa; up to about 25% with 30 C cold shock versus 1% at 37 C.

In the case of KDR locus target, the activity (% modified chromatids) was 25.
